{
  "source": "patent US12065471B2",
  "about": "“B*44 restricted peptides for use in immunotherapy against cancers and related methods” (Immatics Biotechnologies GmbH, priority 2018, dated 2024)",
  "data": [
    {"tested_on": "CD8+ T cells", "test": "In vitro immunogenicity: T-cell priming with aAPCs loaded with peptide/MHC and anti-CD28, pMHC multimer readout", "type": "cell-based, human", "conditions": "Table 10a, pMHC multimer readout after T-cell priming", "experimental": "After three cycles of stimulation, the detection of peptide-reactive cells was performed by 2D multimer staining with B*44/SEQ ID NO: 469 (FIG. 3A), B*44/SEQ ID NO: 512 (FIG. 3B), B*44/SEQ ID NO: 9 (FIG. 3C), B*44/SEQ ID NO: 11 (D), B*44/SEQ ID NO: 17 (E), B*44/SEQ ID NO: 35 (F) or B*44/SEQ ID NO: 41 (FIG. 3G). Right panels (FIGS. 3A through 3G) show control staining of cells stimulated with irrelevant B*44/peptide complexes. Viable singlet cells were gated for CD8+ lymphocytes. Boolean gates helped excluding false-positive events detected with multimers specific for different peptides.\nIn order to obtain information regarding the immunogenicity of the TUMAPs of the present invention, the inventors performed investigations using an in vitro T-cell priming assay based on repeated stimulations of CD8+ T cells with artificial antigen presenting cells (aAPCs) loaded with peptide/MHC complexes and anti-CD28 antibody.\nIn order to perform in vitro stimulations by artificial antigen presenting cells loaded with peptide-MHC complex (pMHC) and anti-CD28 antibody, the inventors first isolated CD8+ T cells from fresh HLA-A*02 leukapheresis products via positive selection using CD8 microbeads (Miltenyi Biotec, Bergisch-Gladbach, Germany) of healthy donors obtained from the University clinics Mannheim, Germany, after informed consent.\nPBMCs and isolated CD8+ lymphocytes were incubated in T-cell medium (TCM) until use consisting of RPMI-Glutamax (Invitrogen, Karlsruhe, Germany) supplemented with 10% heat inactivated human AB serum (PAN-Biotech, Aidenbach, Germany), 100 U/ml Penicillin/100 μg/ml Streptomycin (Cambrex, Cologne, Germany), 1 mM sodium pyruvate (CC Pro, Oberdorda, Germany), 20 μg/ml Gentamycin (Cambrex). 2.5 ng/ml IL-7 (PromoCell, Heidelberg, Germany) and 10 U/ml IL-2 (Novartis Pharma, Nümberg, Germany) were also added to the TCM at this step.\nGeneration of pMHC/anti-CD28 coated beads, T-cell stimulations and readout was performed in a highly defined in vitro system using four different pMHC molecules per stimulation condition and 8 different pMHC molecules per readout condition.\nThe purified co-stimulatory mouse IgG2a anti human CD28 Ab 9.3 (Jung et al., 1987) was chemically biotinylated using Sulfo-N-hydroxysuccinimidobiotin as recommended by the manufacturer (Perbio, Bonn, Germany). Beads used were 5.6 μm diameter streptavidin coated polystyrene particles (Bangs Laboratories, Illinois, USA).\n800.000 beads/200 μl were coated in 96-well plates in the presence of 4×12.5 ng different biotin-pMHC, washed and 600 ng biotin anti-CD28 were added subsequently in a volume of 200 μl. Stimulations were initiated in 96-well plates by co-incubating 1×10^6 CD8+ T cells with 2×10^5 washed coated beads in 200 μl TCM supplemented with 5 ng/ml IL-12 (PromoCell) for 3 days at 37° C. Half of the medium was then exchanged by fresh TCM supplemented with 80 U/ml IL-2 and incubating was continued for 4 days at 37° C. This stimulation cycle was performed for a total of three times. For the pMHC multimer readout using 8 different pMHC molecules per condition, a two-dimensional combinatorial coding approach was used as previously described (Andersen et al., 2012) with minor modifications encompassing coupling to 5 different fluorochromes. Finally, multimeric analyses were performed by staining the cells with Live/dead near IR dye (Invitrogen, Karlsruhe, Germany), CD8-FITC antibody clone SK1 (BD, Heidelberg, Germany) and fluorescent pMHC multimers. For analysis, a BD LSRII SORP cytometer equipped with appropriate lasers and filters was used. Peptide specific cells were calculated as percentage of total CD8+ cells. Evaluation of multimeric analysis was done using the FlowJo software (Tree Star, Oregon, USA). In vitro priming of specific multimer+CD8+ lymphocytes was detected by comparing to negative control stimulations.", "values": [
      {"substance": "461 (MEVDPIGHVYIF; listed as Homo sapiens) [compound 461]", "Wells positive [%]": "+ (<20% = +)"},
      {"substance": "479 (QENSYQSRL; listed as Homo sapiens) [compound 479]", "Wells positive [%]": "+ (<20% = +)"}
    ]},
    {"target": "HLA-B*44:05 (Homo sapiens, UniProt P01889, A223V/A65T/A93T/A95T/D201E/D98Y/E176V/E187L/E204Q/E69K/G107R/H137Y/K202T/L105A/L119I/N104T/N87E/Q56L/Q94N/R106L/R155S/R180D/S101N/S121R/S35A/S48T/T118I/V36M/W191S/Y91S)", "test": "MHC binding assay (UV-ligand exchange, β2m ELISA, peptide exchange yield)", "conditions": "binding to HLA-B*44:05", "method_in_brief": "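Peptide–HLA complexes formed by UV-ligand exchange of a UV-cleavable peptide for the test peptide. Exchange yield measured by β2m ELISA: complexes diluted 100-fold and captured on streptavidin, detected with HRP anti-β2m and TMB, read at 450 nm. Quantified against refolded HLA-A*02:01/MLA-001 monomer standards, 15-500 ng/ml.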", "values": [
      {"substance": "143 (HEIIIRSHW; listed as Homo sapiens) [compound 143]", "Peptide exchange (MHC class I binding score, peptide exchange yield)": "+++ (>50 = +++)"},
      {"substance": "302 (EGEDAHLTQY; listed as Homo sapiens) [compound 302]", "Peptide exchange (MHC class I binding score, peptide exchange yield)": "++ (>20% = ++)"},
      {"substance": "296 (AETIFIVRL; listed as Homo sapiens) [compound 296]", "Peptide exchange (MHC class I binding score, peptide exchange yield)": "++ (>20% = ++)"},
      {"substance": "395 (AEDFVWAQW; listed as Homo sapiens) [compound 395]", "Peptide exchange (MHC class I binding score, peptide exchange yield)": "++++ (>75% = ++++)"},
      {"substance": "147 (RMLSFQQMTW; listed as Homo sapiens) [compound 147]", "Peptide exchange (MHC class I binding score, peptide exchange yield)": "++ (>20% = ++)"},
      {"substance": "364 (EECDKAYSF; listed as Homo sapiens) [compound 364]", "Peptide exchange (MHC class I binding score, peptide exchange yield)": "++ (>20% = ++)"},
      {"substance": "401 (VENIFHNF; listed as Homo sapiens) [compound 401]", "Peptide exchange (MHC class I binding score, peptide exchange yield)": "++ (>20% = ++)"},
      {"substance": "154 (NEAGEMIKHY; listed as Homo sapiens) [compound 154]", "Peptide exchange (MHC class I binding score, peptide exchange yield)": "++ (>20% = ++)"},
      {"substance": "34 (AEPPILYSEY; listed as Homo sapiens) [compound 34]", "Peptide exchange (MHC class I binding score, peptide exchange yield)": "++ (>20% = ++)"},
      {"substance": "271 (REDLVGPEV; listed as Homo sapiens) [compound 271]", "Peptide exchange (MHC class I binding score, peptide exchange yield)": "+++ (>50 = +++)"},
      {"substance": "224 (TETDIDREY; listed as Homo sapiens) [compound 224]", "Peptide exchange (MHC class I binding score, peptide exchange yield)": "++ (>20% = ++)"},
      {"substance": "64 (EEYQDSFERY; listed as Homo sapiens) [compound 64]", "Peptide exchange (MHC class I binding score, peptide exchange yield)": "++ (>20% = ++)"},
      {"substance": "446 (AENIKKFLY; listed as Homo sapiens) [compound 446]", "Peptide exchange (MHC class I binding score, peptide exchange yield)": "+++ (>50 = +++)"},
      {"substance": "440 (QEVAQVASA; listed as Homo sapiens) [compound 440]", "Peptide exchange (MHC class I binding score, peptide exchange yield)": "++ (>20% = ++)"},
      {"substance": "368 (KEKVPGITI; listed as Homo sapiens) [compound 368]", "Peptide exchange (MHC class I binding score, peptide exchange yield)": "+++ (>50 = +++)"},
      {"substance": "354 (TEIMEKTTL; listed as Homo sapiens) [compound 354]", "Peptide exchange (MHC class I binding score, peptide exchange yield)": "+++ (>50 = +++)"},
      {"substance": "365 (NESGKAFNY; listed as Homo sapiens) [compound 365]", "Peptide exchange (MHC class I binding score, peptide exchange yield)": "++++ (>75% = ++++)"},
      {"substance": "424 (EEHVYESIIRW; listed as Homo sapiens) [compound 424]", "Peptide exchange (MHC class I binding score, peptide exchange yield)": "+++ (>50 = +++)"},
      {"substance": "329 (SEPQITVNF; listed as Homo sapiens) [compound 329]", "Peptide exchange (MHC class I binding score, peptide exchange yield)": "+++ (>50 = +++)"},
      {"substance": "346 (EEIENLQAQF; listed as Homo sapiens) [compound 346]", "Peptide exchange (MHC class I binding score, peptide exchange yield)": "++ (>20% = ++)"},
      {"substance": "199 (AELPENLKALF; listed as Homo sapiens) [compound 199]", "Peptide exchange (MHC class I binding score, peptide exchange yield)": "+++ (>50 = +++)"},
      {"substance": "402 (IETSSEYFNF; listed as Homo sapiens) [compound 402]", "Peptide exchange (MHC class I binding score, peptide exchange yield)": "+++ (>50 = +++)"},
      {"substance": "266 (EEEDRDGHTW; listed as Homo sapiens) [compound 266]", "Peptide exchange (MHC class I binding score, peptide exchange yield)": "+++ (>50 = +++)"},
      {"substance": "430 (RELARVVTL; listed as Homo sapiens) [compound 430]", "Peptide exchange (MHC class I binding score, peptide exchange yield)": "++++ (>75% = ++++)"},
      {"substance": "294 (EEWEWIQKL; listed as Homo sapiens) [compound 294]", "Peptide exchange (MHC class I binding score, peptide exchange yield)": "++++ (>75% = ++++)"},
      {"substance": "382 (SELNPLALY; listed as Homo sapiens) [compound 382]", "Peptide exchange (MHC class I binding score, peptide exchange yield)": "+++ (>50 = +++)"},
      {"substance": "112 (AEIEADRSYQH; listed as Homo sapiens) [compound 112]", "Peptide exchange (MHC class I binding score, peptide exchange yield)": "+++ (>50 = +++)"},
      {"substance": "429 (RETEDYSKQAL; listed as Homo sapiens) [compound 429]", "Peptide exchange (MHC class I binding score, peptide exchange yield)": "++ (>20% = ++)"},
      {"substance": "183 (KEMQVTISQQL; listed as Homo sapiens) [compound 183]", "Peptide exchange (MHC class I binding score, peptide exchange yield)": "++++ (>75% = ++++)"},
      {"substance": "242 (CDAQIQYSY; listed as Homo sapiens) [compound 242]", "Peptide exchange (MHC class I binding score, peptide exchange yield)": "+++ (>50 = +++)"},
      {"substance": "264 (RELIKAIGL; listed as Homo sapiens) [compound 264]", "Peptide exchange (MHC class I binding score, peptide exchange yield)": "+++ (>50 = +++)"},
      {"substance": "173 (SEHSLEGQKF; listed as Homo sapiens) [compound 173]", "Peptide exchange (MHC class I binding score, peptide exchange yield)": "+++ (>50 = +++)"},
      {"substance": "217 (EVEVGDRTDW; listed as Homo sapiens) [compound 217]", "Peptide exchange (MHC class I binding score, peptide exchange yield)": "++ (>20% = ++)"},
      {"substance": "362 (SEVEYINKY; listed as Homo sapiens) [compound 362]", "Peptide exchange (MHC class I binding score, peptide exchange yield)": "+++ (>50 = +++)"},
      {"substance": "370 (EEVLLANALW; listed as Homo sapiens) [compound 370]", "Peptide exchange (MHC class I binding score, peptide exchange yield)": "+++ (>50 = +++)"},
      {"substance": "203 (REILHAQTL; listed as Homo sapiens) [compound 203]", "Peptide exchange (MHC class I binding score, peptide exchange yield)": "+++ (>50 = +++)"},
      {"substance": "14 (EMPGGPVW; listed as Homo sapiens) [compound 14]", "Peptide exchange (MHC class I binding score, peptide exchange yield)": "+++ (>50 = +++)"},
      {"substance": "390 (GEYNKHAQLW; listed as Homo sapiens) [compound 390]", "Peptide exchange (MHC class I binding score, peptide exchange yield)": "++++ (>75% = ++++)"},
      {"substance": "94 (SLAELIAKDW; listed as Homo sapiens) [compound 94]", "Peptide exchange (MHC class I binding score, peptide exchange yield)": "++ (>20% = ++)"},
      {"substance": "406 (GETVVLKNM; listed as Homo sapiens) [compound 406]", "Peptide exchange (MHC class I binding score, peptide exchange yield)": "+++ (>50 = +++)"},
      {"substance": "333 (SEGTLPYSY; listed as Homo sapiens) [compound 333]", "Peptide exchange (MHC class I binding score, peptide exchange yield)": "++ (>20% = ++)"},
      {"substance": "347 (LENPHVQSV; listed as Homo sapiens) [compound 347]", "Peptide exchange (MHC class I binding score, peptide exchange yield)": "+++ (>50 = +++)"},
      {"substance": "1 (KEVDPASNTYTL; listed as Homo sapiens) [compound 1]", "Peptide exchange (MHC class I binding score, peptide exchange yield)": "++ (>20% = ++)"},
      {"substance": "323 (SETAVVNVTY; listed as Homo sapiens) [compound 323]", "Peptide exchange (MHC class I binding score, peptide exchange yield)": "++++ (>75% = ++++)"},
      {"substance": "287 (REVSVVDIL; listed as Homo sapiens) [compound 287]", "Peptide exchange (MHC class I binding score, peptide exchange yield)": "++++ (>75% = ++++)"},
      {"substance": "67 (TEGAVEVKY; listed as Homo sapiens) [compound 67]", "Peptide exchange (MHC class I binding score, peptide exchange yield)": "++ (>20% = ++)"},
      {"substance": "168 (EEGPSVPKIY; listed as Homo sapiens) [compound 168]", "Peptide exchange (MHC class I binding score, peptide exchange yield)": "++ (>20% = ++)"}
    ]}
  ]
}
